From the supplement of paper PMC7877785
± gives the uncertainty stated by the source.

Test: self-splicing fitness, log relative to wild type (ln ratio); higher = more splicing; Tetrahymena group I intron in knt gene, E. coli kanamycin selection, DiMSum; sequences stand for … in CUCUCU…GGAGGGAAAAGUUAUCAGGCAUGCACCUGGUAGCUAGUCUUUAAACCAAUAGAUUGCAUCGGUUUAAAAGGCAAGACCGUCAAAUUGCGGGAAAGGGGUCAACAGCCGUUCAGUACCAAGUCUCAGGGGAAACUUUGAGAUGGCCUUGCAAAGGGUAUGGUAAUAAGCUGACGGACAUGGUCCUAACCACGCAGCCAAGUCCUAAGUCAACAGAUCUUCUGUUGAUAUGGAUGCAGUUCACAGACUAAAUGUCGGUCGGGGAAGAUGUAUUCUUCUCAUAAGAUAUAGUCGGACCUCUCCUUAAUGGGAGCUAGCGGAUGAAGUGAUGCAACACUGGAGCCGCUGGGAACUAAUUUGUAUGCGAAAGUAUAUUGAUUAGUUUUGGAGUACUCGUGGUCG
Summary of the method: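 Six replicate transformations of E. coli BL21(DE3) with a pET-22b(+) library were grown overnight at 37°C or 30°C. The library randomised all eight P1ex-region intron nucleotides, the intron lying in the knt kanamycin-resistance gene, and plates were LB agar with or without 25 μg/mL kanamycin plus 100 μg/mL carbenicillin, 50 μM IPTG and 0.2% rhamnose. Pooled colonies were amplicon-sequenced on an Illumina HiSeq 2500, and fitness is the DiMSum error-weighted combination of wild-type-normalised replicate fold changes, kanamycin versus none.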

Row | Sequence | self-splicing fitness (ln) (30 °C) | self-splicing fitness (ln) (37 °C)
1 | ACCAAGCAAUAUUACGGGGC | -3.74 ± 0.18 | -2.1 ± 0.14
2 | ACCAAGCAAUAUUACGUACC | -1.57 ± 0.17 | -1.32 ± 0.17
3 | ACCAAGCAAUAUUACGUAGA | -2.66 ± 0.14 | -2.04 ± 0.16
4 | ACCAAGCAAUAUUACGUCAG | -3.58 ± 0.15 | -1.56 ± 0.1
5 | ACCAAGCAAUAUUACGUCUU | -4.21 ± 0.14 | -2.59 ± 0.12
6 | ACCAAGCAAUAUUACGUGUG | -2.06 ± 0.048 | -1.1 ± 0.064
7 | ACCAAGCAAUAUUACGUUCU | -1.56 ± 0.06 | -0.915 ± 0.076
8 | ACCAAGCAAUAUUACGUUUU | -3.36 ± 0.1 | -2.29 ± 0.096
9 | ACCCAGCAAUAUUACGAAUC | -2.13 ± 0.12 | -1.45 ± 0.16
10 | ACCCAGCAAUAUUACGAAUG | -3.41 ± 0.13 | -1.2 ± 0.13
11 | ACCCAGCAAUAUUACGAGUC | -4.16 ± 0.15 | -2.3 ± 0.15
12 | ACCCAGCAAUAUUACGAUAA | -2.15 ± 0.091 | -0.0251 ± 0.098
13 | ACCCAGCAAUAUUACGAUGA | -1.43 ± 0.09 | -0.256 ± 0.088
14 | ACCCAGCAAUAUUACGCAUG | -4.1 ± 0.15 | -2.58 ± 0.15
15 | ACCCAGCAAUAUUACGCCUC | -1.05 ± 0.084 | -0.0787 ± 0.11
16 | ACCCAGCAAUAUUACGCGCC | -0.907 ± 0.064 | 0.136 ± 0.094
17 | ACCCAGCAAUAUUACGCUUC | -2.01 ± 0.076 | -1 ± 0.095
18 | ACCCAGCAAUAUUACGGAAG | -2.49 ± 0.091 | -1.02 ± 0.1
19 | ACCCAGCAAUAUUACGGACG | -1.1 ± 0.07 | -0.9 ± 0.08
20 | ACCCAGCAAUAUUACGGAGA | -0.451 ± 0.048 | 0.122 ± 0.063
21 | ACCCAGCAAUAUUACGGGCG | -0.609 ± 0.055 | -0.0252 ± 0.077
22 | ACCCAGCAAUAUUACGGUGC | -1.11 ± 0.069 | -0.261 ± 0.086
23 | ACCCAGCAAUAUUACGGUGG | -3.57 ± 0.15 | -2.76 ± 0.18
24 | ACCCAGCAAUAUUACGGUUC | -2.22 ± 0.072 | -1.32 ± 0.094
25 | ACCCAGCAAUAUUACGGUUU | -0.863 ± 0.041 | 0.0681 ± 0.056
26 | ACCCAGCAAUAUUACGUAGG | -0.517 ± 0.064 | -0.48 ± 0.081

Row | Sequence | self-splicing fitness (ln) (30 °C) | self-splicing fitness (ln) (37 °C)
27 | ACCCAGCAAUAUUACGUAUG | -3.89 ± 0.14 | -1.77 ± 0.11
28 | ACCCAGCAAUAUUACGUCAA | -1.88 ± 0.099 | -1.59 ± 0.11
29 | ACCCAGCAAUAUUACGUCCG | -3.83 ± 0.22 | -0.701 ± 0.14
30 | ACCGAGCAAUAUUACGAAUA | -3.02 ± 0.32 | -2.41 ± 0.2
31 | ACCGAGCAAUAUUACGACAU | -2.219 ± 0.015 | -1.3 ± 0.033
32 | ACCGAGCAAUAUUACGCAAA | -3.62 ± 0.24 | -3.11 ± 0.24
33 | ACCGAGCAAUAUUACGCAAG | -3.36 ± 0.17 | -2.35 ± 0.18
34 | ACCGAGCAAUAUUACGCAUU | -3.91 ± 0.17 | -1.78 ± 0.12
35 | ACCGAGCAAUAUUACGCGAG | -2.75 ± 0.19 | -2.06 ± 0.15
36 | ACCGAGCAAUAUUACGCUAC | -3.58 ± 0.19 | -2.86 ± 0.24
37 | ACCGAGCAAUAUUACGCUUA | -1.56 ± 0.14 | -1.63 ± 0.17
38 | ACCGAGCAAUAUUACGCUUU | -3.06 ± 0.28 | -1.56 ± 0.15
39 | ACCGAGCAAUAUUACGGACA | -1.25 ± 0.15 | -0.523 ± 0.15
40 | ACCGAGCAAUAUUACGGAUG | -2.12 ± 0.12 | -1.85 ± 0.098
41 | ACCGAGCAAUAUUACGGCAA | -1.19 ± 0.12 | -1.48 ± 0.12
42 | ACCGAGCAAUAUUACGGUUU | -3.42 ± 0.14 | -2.35 ± 0.18
43 | ACCGAGCAAUAUUACGUAAC | -4.02 ± 0.32 | -2.88 ± 0.35
44 | ACCGAGCAAUAUUACGUAGA | -4.48 ± 0.29 | -2.69 ± 0.18
45 | ACCGAGCAAUAUUACGUCAU | -5.01 ± 0.34 | -2.68 ± 0.14
46 | ACCGAGCAAUAUUACGUCUC | -3.22 ± 0.32 | -2.77 ± 0.48
47 | ACCGAGCAAUAUUACGUCUU | -2.91 ± 0.12 | -2.22 ± 0.13
48 | ACCGAGCAAUAUUACGUGCU | -3.32 ± 0.25 | -2.49 ± 0.27
49 | ACCGAGCAAUAUUACGUUUU | -3.3 ± 0.15 | -2.59 ± 0.15
50 | ACCUAGCAAUAUUACGAAAC | -2.68 ± 0.15 | -2.31 ± 0.19
51 | ACCUAGCAAUAUUACGAGAA | -2.97 ± 0.35 | -2.29 ± 0.31
52 | ACCUAGCAAUAUUACGAGAG | -2.34 ± 0.13 | -0.462 ± 0.08

Row | Sequence | self-splicing fitness (ln) (30 °C) | self-splicing fitness (ln) (37 °C)
53 | ACCUAGCAAUAUUACGAUUA | -2.05 ± 0.15 | -1.51 ± 0.12
54 | ACCUAGCAAUAUUACGCAUG | -2.27 ± 0.15 | -1.42 ± 0.14
55 | ACCUAGCAAUAUUACGCCGA | -2.23 ± 0.13 | -1.01 ± 0.13
56 | ACCUAGCAAUAUUACGCCUU | -1.43 ± 0.098 | 0.204 ± 0.12
57 | ACCUAGCAAUAUUACGCGUG | -0.901 ± 0.077 | -0.11 ± 0.1
58 | ACCUAGCAAUAUUACGCUAG | -3.86 ± 0.25 | -2.79 ± 0.28
59 | ACCUAGCAAUAUUACGCUGA | -1.59 ± 0.082 | -0.127 ± 0.09
60 | ACCUAGCAAUAUUACGGAGG | -2.4 ± 0.14 | -2.16 ± 0.21
61 | ACCUAGCAAUAUUACGGGCC | -2.34 ± 0.18 | -0.63 ± 0.16
62 | ACCUAGCAAUAUUACGUACG | -2.46 ± 0.16 | -1.02 ± 0.14
63 | ACCUAGCAAUAUUACGUCUA | -2.44 ± 0.21 | -2.04 ± 0.25
64 | ACCUAGCAAUAUUACGUGCG | -1.5 ± 0.069 | -0.773 ± 0.077
65 | ACCUAGCAAUAUUACGUGUC | -4.29 ± 0.29 | -2.24 ± 0.17
66 | ACCUAGCAAUAUUACGUUUG | -2.6 ± 0.08 | -2.03 ± 0.11
67 | ACGAAGCAAUAUUACGAACC | -1.75 ± 0.14 | -0.895 ± 0.19
68 | ACGAAGCAAUAUUACGAAUU | -3.63 ± 0.17 | -2.37 ± 0.15
69 | ACGAAGCAAUAUUACGACCC | -0.88 ± 0.22 | 0.121 ± 0.26
70 | ACGAAGCAAUAUUACGACCG | -0.458 ± 0.12 | 0.219 ± 0.14
71 | ACGAAGCAAUAUUACGACGC | -0.651 ± 0.18 | -0.221 ± 0.16
72 | ACGAAGCAAUAUUACGAGAG | -3.39 ± 0.28 | -2.53 ± 0.22
73 | ACGAAGCAAUAUUACGAGGU | -3.96 ± 0.22 | -3.57 ± 0.22
74 | ACGAAGCAAUAUUACGAUAC | -3.68 ± 0.2 | -2.2 ± 0.22
75 | ACGAAGCAAUAUUACGAUUC | – | -2.8 ± 0.33
76 | ACGAAGCAAUAUUACGCAUA | -1.44 ± 0.08 | -0.782 ± 0.072
